Source: patent publication US20250026813A1 (published 2025)
Where a chain is given by its changes, count along the chain named.

B1: YANG-2203 (antibody, V domains shown)
VH: QVQLVQSGAEVKQPGASVKVSCRASGYALTSFYVHWVRQAPGQGLEWMGIIKPSGGDTIYAQNLQGRVTMTRDTSTNTFYVELSSLRSEDTALYYCAISGNTRAFEIWGQGTMVTVSL
VL: QSVLTQPPSVSAAPGQKVTISCSGSSSNIGNNFVSWYQQLPGMVPKLLIYANNKRPSGIPDRFSGSRSGTSATLGITGLQTGDEADYYCGTWDSSRSAVLFGGGTKMTVL
B2: YANG-2204 (antibody, V domains shown)
VH: QMQLVQSGAEVKKPGASVKFSCKTSGYTFTNYYMVWVRQAPGQGLEWMGIIKPSGGNTIYAQKFQGRVTMTRDTSTNTVYMDLTSLRSEDTAVYYCARTGDRAFDVWGQGTMVTVSS
VL: B1 VL with F33Y, M43T, V44A, A51D, R67K, R96L, S97G, V99G, L100V, M107L
B3: YANG-2202 (antibody, V domains shown)
VH: EVQLVESGGGLVQPGGSLRLSCAASGFTFSSFAMSWVRQAPGKGLEWVAAFSGRGAITHYTDSVKGRFTISRDNSKNTLYLQMNSLRAEDTAVYYCATYNWNPYYFDFWGQGTLVTVSS
VL: DIQMTQSPSSVSASIGDRVTITCRASQDINIWLAWYQQKPGKAPNLLIFDTSNLQSGVPSRFSGSGSGSDFTLTISSLQPEDFATYYCQQGNSFPRTFGQGTRLEIK
B4: YANG-1201 (antibody, V domains shown)
VH: QVQLQESGPGLVKPSGTLSLTCAVSGDSISNSKWWSWVRQPPGKGLEWIGEIFHSGSTNYNPSLKSRVTISVDKSQNQFSLKLNSVTAADTAVYYCARSASLYYYYGVDVWGQGTTVTVSS
VL: EIVLTQSPGTLSLSPGERATLSCRASQSVSNNYLAWYQQKPGQAPRLLIYGTSRRDTGIPDRFSGSGSGTDFTLTISRLEPEDFAVYYCEQYGSLPRTFGQGTKVEIK
B5: YANG-1111 (antibody, V domains shown)
VH: EVQLVESGGGLIQPGGSLRLSCAASGFTFSSYSINWVRQAPGKGLEWVSFISGSSTTIYYADSVKGRFTISRDSAKNSLYLQMNSLRDEDTAVYYCARGLRSSIAPRPDYFDSWGQGILVTVSS
VL: SYVLTQPPSVSVAPGKTARITCGGNNIGSKGVHWYQQKPGQAPVLVIYYDSDRPSGIPERFSGSNSGNTATLTISRVEAGDEADYSCQVWDSSSDHPVFGGGTKLTVQ
B6: YANG-1119 (antibody, V domains shown)
VH: EVQLVESGGGLVKPGGSLRLSCAASGFTFSSYSMNWVRQAPGKGLEWVSSISTGSSYIFYADSVKGRFTISRDNAKNSLYLQMNSLRAEDTAVYYCAKTGDLPFFDYWGQGTLVTVSS
VL: QSALTQPASVSGSPGQSITISCTGTSSDVGRYNYVSWYQQHPGKAPKLMIYEVSNRPSGVSNRFSGSKSGNTASLTISGLQAEDEADYYCSSYTSSSTMVFGGGTKLTVL
B7: YANG-1115 (antibody, V domains shown)
VH: B6 VH
VL: B6 VL with T108S
B8: YANG-1113 (antibody, V domains shown)
VH: B6 VH with I70M, L113P
VL: B6 VL
B9: YANG-1116 (antibody, V domains shown)
VH: B6 VH with A23E, T28N, S30R, S33A, M34L, Y80S
VL: B6 VL with S91I
B10: YANG-1118 (antibody, V domains shown)
VH: B6 VH with S33A, M34L, N77H, Y80S
VL: B6 VL with S91I
B11: YANG-1114 (antibody, V domains shown)
VH: B6 VH with Q3H, G8V
VL: B6 VL
B12: YANG-1117 (antibody, V domains shown)
VH: B6 VH with M34V, A97V
VL: B6 VL with S26R, S54T, S95N, S96N
B13: YANG-1112 (antibody, V domains shown)
VH: QITLKESGPTLVKPTQTLTLTCTFSGFSLSTGGVAVGWIRQPPGKALEWLAIIYWDDDKRYSPSLKSRLTITKDTSKNQVVLTMTNMDPVDTATYYCAHWGKDSFDIWGQGTMVTVSS
VL: SYELTQPPSVSVSPGQTARITCSGDALPRKYAYWYQQKSGQAPVLVIYEDNNRPSGIPERFSGSSSGTTATLTVSGAQVEDEADYYCYSTDTSGYVVFGGGTKLTVL
B14: YANG-1102 (antibody, V domains shown)
VH: QVQLQESGPGLVKPSGTLSLTCAVSGGSISTTNWWSWVRQSPGRGLEWIGEIFHIGYTNYNPSLKSRVTISVDKSKNQFSLKLNSVTVADTAVYYCARRVVMDTAMAHFDCWGQGTLVTVSS
VL: QSVLTQPPSVSGAPGQRVTISCTGSSSNIGAGYDVHWYQHLPGTAPKLLIYININRPSGVPDRFSGSKSGTSASLVIAGLQAEDGADYYCQSYDSSLSGWVFGGGTRLTVL
B15: YANG-1110 (antibody, V domains shown)
VH: QVQLAESGGGVVQPGRSLRLSCVVSGFTFSNYGMHWVRQAPGKGLEWVVFISNDGSNEDFVDSVKGRFTISRDNSKNTLYLQMNSLRAEDTAVYYCAKGGYFYGSGNYYYYYGMDVWGQGTTVTVSS
VL: QPVLTQSSSASASLGSSVKLTCTLSSVHSNHIIAWHQQQPGKAPRYLMKLEGSGRYSKGSGVPDRFSGSSSEADRYLTISNLQSEDEADYYCETWDNNTYVFGSGTKVTVL
B16: YANG-1108 (antibody, V domains shown)
VH: QVQLVESGGGVVHPGRSLRLSCVVSGFTFSGYGMYWVRQAPGKGLEWVAVISKDGSDKYYADSVKGRFTISRDNSKNTLNLQMNSLRAEDTAVFYCAKERTFQGSGSYYNNYFYYGMDVWGQGTTVTVSS
VL: AIQLTQSPSSLSASVGDRVTITCRASQGISSALAWYQQKPGKAPNLLIYDASSLESGVPSRFSGSGFGTDFTLTINSLQPEDFASYYCQQFKSYPLTFGGGTKVEIK
B17: YANG-1204 (antibody, V domains shown)
VH: QVQLVESGGGVVQPGRSLRLSCAVSGFTFSNYGIHWVRQAPGKGLVWVAVISYEGSIKYYGDSVKGRFTISRDNSKNTLYLQMNSLRAEDTAVYYCARGAVAGNDAFDIWGQGTMVTVSS
VL: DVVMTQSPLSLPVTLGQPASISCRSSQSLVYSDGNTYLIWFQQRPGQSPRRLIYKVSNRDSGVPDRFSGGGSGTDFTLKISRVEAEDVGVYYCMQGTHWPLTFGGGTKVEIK
B18: YANG-1103 (antibody, V domains shown)
VH: EVQMVESGGGLIQPGGSLRLSCAASGLTVSSNYMSWVRQAPGKGLEWVSVIYSGGSTFYADSVKDRFTISRDNSKNTLYLQMNSLRAEDTAVYYCARENWNYVFDCWGQGTLVTVSS
VL: DIQLTQSPSFLSASVGDRVTITCWASQGISSYLAWYQQKPGKAPKLLIYAASTLQSGVPSRFSGSGSGTEFTLTISSLQPEDFATYYCQQLNSHPIIFGQGTRLEIK
B19: YANG-1105 (antibody, V domains shown)
VH: EVQVVESGGGLIQPGGSLRLSCAASGITVSRNYMNWVRQAPGKGLEWVSVIYSGGSTFYADSVKGRFTISRDNSKNTLYLQMNSLRADDTGVYYCAREGYGMDVWGQGTTVTVSS
VL: B18 VL with A50S, S76N, I96C, I97S, R103K
B20: YANG-1109 (antibody, V domains shown)
VH: B19 VH with V4L, A23G, A24V, I27L, N83I, D88E, T90S, Y100F
VL: B18 VL with S31N, A50S, S77N, E81A, F83I, Q90L, I96C, I97S, R103K
B21: YANG-1107 (antibody, V domains shown)
VH: B18 VH with P14S, T28S, S49A, T57I
VL: B18 VL with S31T, N92S
B22: YANG-1101 (antibody, V domains shown)
VH: QLQLQESGPGLVKPSETLSLTCTVSGGSISSSSYYWGWIRQPPGKGLEWIGSIYYSGSIYYNPSLKSRVTISVDTSKNQFSLKLSSVTAADTAVYYCASWFGEFLKADAFDIWGQGTMVTVSS
VL: QSALTQPASVSGSPGQSITISCTGTSSDVGGYSYVSWYQQHPGKAPKLMIYDVSKRPSGVSNRFSGSKSGNTASLTISGLQAEDEADYYCCSYAGGSTFVVFGGGTKLTVL
B23: YANG-1202 (antibody, V domains shown)
VH: EMQLVESGGGLVQPGGSLRLSCAASGFTFSSFWMRWVRQAPGKGLEWVANIKQDGTEKYYVDSVKGRFTISRDNAKNSLYLQMNSLRAEDTAVYYCVRDRVGGDYYYYDMDVWGQGTTVTVSS
VL: DIQMTQSPSSLSASVGDRVTITCRASQDISNYLAWFQQKPGKAPKSLIYAASSLQSGVPSKFSGSGSGTDFTLTISGLQPEDSATYYCQQYNSYPRTFGQGTKVEIK
B24: YANG-1203 (antibody, V domains shown)
VH: EVRLVESGGALVQPGRSLRLSCAASGFIFDGYAMHWVRQVPGKGLEWVSGISWNSGNIGYADSVKGRFTISRDNAKNSLYLQMNSLRAEDTALYYCAKDIRPSGKYYYGMDVWGQGTTVTVSS
VL: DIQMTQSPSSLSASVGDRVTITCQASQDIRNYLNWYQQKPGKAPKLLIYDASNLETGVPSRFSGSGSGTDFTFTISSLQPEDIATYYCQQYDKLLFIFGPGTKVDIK
B25: YANG-1106 (antibody, V domains shown)
VH: EVQLVESGGGLIQPGGSLRLSCAASEFIVSRNYMSWVRQAPGKGLEWVSVIYSGGSTFYADSVRGRFTISRDNSKNTLYLQMNSLRAEDTAVYYCARDYGDQYFDYWGQGTLVTVSS
VL: EMVMTQSPATLSVSPGEKATLSCRASQTVSTNLAWYQQKPGQSPRLLIYGASTRATGIPARFSGSGSGTEFTLTISSLQSEDFAIYYCQQYVDWPRTFGQGTTVEIK

Biological target: SARS-CoV-2 spike protein bearing furin mutation and truncation in retention sequence (on pseudoviral envelope) (SARS-CoV-2, UniProt P0DTC2 14-1273)
Assay: cell-based or functional assay

With B1 as the binder, how does the “PV neutralisation IC50” value read?
Its value is 5.45 nM.

What about the “PV neutralization % (Ab 1 ug/mL)” value of the same binder?
Its value is 35.7%.

How did the “PV neutralisation IC50” value turn out when B2 was run?
The value was 3.3 nM.

And the “PV neutralization % (Ab 1 ug/mL)” value?
Its value is 41%.

Which “PV neutralization % (Ab 1 ug/mL)” value does the source give for B3 here?
Its value is 37.5%.

Biological target: SARS-CoV-2 spike protein bearing furin mutation and truncation in retention sequence, on pseudoviral particles (SARS-CoV-2, UniProt P0DTC2 14-1255)
Assay: cell-based or functional assay

Which “PV neutralization % (Ab 1 ug/mL)” value does the source give for B4 here?
The value was 40.6%.

For B5, which “PV neutralisation IC50” value is on record?
The value was 1.82 nM.

And the “PV neutralization % (Ab 1 ug/mL)” value?
The value was 72.7%.

Which “PV neutralisation IC50” value does the source give for B6 here?
Its value is 0.96 nM.

And the “PV neutralization % (Ab 1 ug/mL)” value?
The value was 99%.

For B7, which “PV neutralization % (Ab 1 ug/mL)” value is on record?
Its value is 97.8%.

For B8, which “PV neutralization % (Ab 1 ug/mL)” value is on record?
Its value is 97.6%.

For B9, which “PV neutralization % (Ab 1 ug/mL)” value is on record?
The value was 99.2%.

For B10, which “PV neutralisation IC50” value is on record?
The value was 0.25 nM.

What about the “PV neutralization % (Ab 1 ug/mL)” value of the same binder?
Its value is 99.3%.

How did the “PV neutralization % (Ab 1 ug/mL)” value turn out when B11 was run?
Its value is 93.2%.

For B12, which “PV neutralization % (Ab 1 ug/mL)” value is on record?
The value was 97.8%.

What does the source list for B13?
PV neutralisation IC50: 0.52 nM; PV neutralization % (Ab 1 ug/mL): 89.2%

For B14, which “PV neutralisation IC50” value is on record?
The value was 0.84 nM.

And the “PV neutralization % (Ab 1 ug/mL)” value?
The value was 86.9%.

How did the “PV neutralization % (Ab 1 ug/mL)” value turn out when B15 was run?
The value was 99.3%.

B16 was tested. Which “PV neutralization % (Ab 1 ug/mL)” value did it give?
The value was 95.2%.

How did the “PV neutralization % (Ab 1 ug/mL)” value turn out when B17 was run?
Its value is 44.8%.

B18 was tested. Which “PV neutralisation IC50” value did it give?
The value was 0.28 nM.

And the “PV neutralization % (Ab 1 ug/mL)” value?
Its value is 100%.

For B19, which “PV neutralization % (Ab 1 ug/mL)” value is on record?
The value was 97.2%.

What does the source list for B20?
PV neutralisation IC50: 1.81 nM; PV neutralization % (Ab 1 ug/mL): 99.4%

How did the “PV neutralization % (Ab 1 ug/mL)” value turn out when B21 was run?
The value was 99.2%.

For B22, which “PV neutralization % (Ab 1 ug/mL)” value is on record?
Its value is 98%.

How did the “PV neutralization % (Ab 1 ug/mL)” value turn out when B23 was run?
The value was 51.9%.

Which “PV neutralization % (Ab 1 ug/mL)” value does the source give for B24 here?
Its value is 41.4%.

Which “PV neutralization % (Ab 1 ug/mL)” value does the source give for B25 here?
Its value is 99.5%.
